Data on two molecules can be found in US20250275560A1, “PROCESS OF MAKING GINGEROL COMPOUNDS AND THEIR USE AS FLAVOR MODIFIERS” (Firmenich SA, priority 2021, published 2025).

Data set [1] is described as follows: Characterization of oxidoreductases with regard to reduction of [6]-gingerol to the (3R,5S)-alcohol (HPLC). Format: biochemical. Conditions: recombinant E. coli enzyme suspension, NADH, 2-propanol, 25° C., 24 hours; for Ratio: 3S,5S/3R,5S (%) - 3R,5S share / Ratio: 3S,5S/3R,5S (%) - 3S,5S share: 2 mg [6]-gingerol; for Conversion (%): conversion of [6]-gingerol. As to the method: The oxidoreductases with the polypeptide sequences SEQ ID NO: 1 and SEQ ID NO: 3 were examined by the following method to determine the conversion rate and diasterioselectivity by reducing [6]-gingerol to the corresponding (3R, 5S)-alcohol:
Recombinant Escherichia coli cells which carry the genes of the oxidoreductases SEQ ID NO: 1 or SEQ ID NO: 3 were cultivated as described in Example 2. To produce an enzyme suspension, 1 g wet cells were completely resuspended with TEA buffer (100 mM triethanolamine pH 7.0, 2 mM MgCl2) in a total volume of 5 mL and then mixed until homogeneous by adding 5 mL glycerol solution (80% [v/v] in TEA buffer). In the reaction setup, 2 mg [6]-gingerol per […] of this enzyme suspension were added to 160 μL KPP buffer (100 mM potassium phosphate buffer, pH 7.5, 1 mM MgCl2), together with 0.0035 g NADH and 20 μL 2-propanol. After incubating the samples at 25° C. and 1200 rpm for 24 hours, the reaction solutions were extracted with 1 ml each of […] and centrifuged. 250 μL of the extract were removed and dried. Then 1 ml acetonitrile was added and analyzed by means of HPLC. A Luna PFP (2) column (150×3 mm) from Phenomenex (Germany) was used for detecting the conversion of [6]-gingerol and the diastereomers formed.

Data set [2] is described as follows: Determination of the enzyme activities for ethyl-2-oxo-4-phenylbutyrate with enzyme lysate (NADH absorption decrease at 340 nm). Format: biochemical. The following applies: enzyme lysate of recombinant RB791 cells, per wet cell mass; room temperature, pH 7.0, 0.3 mM NADH, 1 mM ethyl-2-oxo-4-phenylbutyrate; mean of at least three measurements. As to the method: Enzyme lysates (10% [w/v] and 20% [w/v] wet cell mass) were used to determine the enzyme activities. Enzyme lysates were prepared in TEA buffer (100 mM triethanolamine pH 7.0, 2 mM MgCl2). 0.1 g or 0.2 g wet cell mass was completely resuspended in 1 ml TEA buffer. The cells were disrupted in 2 ml reaction vessels by adding a 0.5 ml corresponding volume of glass beads at 24 Hz for 10 minutes in a vibrating mill (Retsch, MM200). The cell lysate was then sedimented in a tabletop centrifuge at 7500×g for 60 seconds. The cell-free supernatant, the enzyme lysate, was used immediately to determine the activity.
The activity was measured at room temperature in a reaction volume of 1 ml in a semi-micro cuvette (layer thickness 1 cm). The reaction mixture was composed as follows: 100 mM triethanolamine pH 7.0, 2 mM MgCl2, 0.3 mM NADH and 1 mM ethyl-2-oxo-4-phenylbutyrate (CAS No. 64920 29 2)
The reaction was started by adding 15 μL or 25 μL of enzyme lysate diluted in TEA buffer. The individual dilution was chosen for each enzyme lysate in such a way that a linear decrease in absorption at 340 nm could be recorded over a period of 30 seconds (UV-Vis spectrophotometer, Shimadzu). […] Each measurement was carried out at least three times and the mean values were determined. […] (SEQ ID NO: 1) or Weizmannia coagulans (SEQ ID NO: 3), respectively, enzyme activities of 1825 U/g and 71 U/g were determined.

B1: SEQ ID NO: 1: KRED polypeptide isolated from Bacillus sp, 248 amino acids, expressed recombinantly in Escherichia coli (protein, listed as Bacillus sp.)
chain: MSGRVAVITGAGSGIGRETCLTFARKGEKVVVADINEEKGLETTELVKAEGGEAVFVNTDVSKFEEVEALVDQAVETYGSIDIMFNNAGIGKMGHVLSLNIEDYLHVIDVNQHGVAYGIIAAGRKMRDLDIKGVIINSASVFGYLANFGTFPYQASKGAVRMMTQNAALELSQYGIRVVGIAPGSVDTSIIQAYKDAGMTQKMKEQQMRKELIRPEAIANAVYLLTLEEADVINGSVVMLDDGYASFK
On to B1, for which, in data set [1], the “Ratio: 3S,5S/3R,5S (%) - 3R,5S share” value amounted to 95.5%, the “Ratio: 3S,5S/3R,5S (%) - 3S,5S share” value came out at 4.5% and the “Conversion (%)” value is given as greater than 71%. Further, in data set [2], the enzyme activity is 1825 U/g.

B2: SEQ ID NO: 3: KRED polypeptide isolated from Weizmannia coagulans, 248 amino acids, expressed recombinantly in Escherichia coli (protein)
chain: MSGRVAVITGAGSGIGWETSLTFARKGDSVVVADIDEEKGLETVELIKQEGGDAVFAKTDVSKFEEVESLVNQAVEIYGTIDVMFNNAGIGTLGHILSKKIEDYLRVIDVNQHGVAYGIIAAGRKMRELDVKGVIINTASVFGYLANFGTFPYQAAKGAVRMMTQNAALELAQYGIRVVGIAPGCVDTPIIQAYKDAGMTQKMTEQQMRKKLIRPEAIANAVYLLTLEEADAINGSVVMLDDGYASFK
modifications: Weizmannia coagulans
notes: KRED polypeptide isolated from Weizmannia coagulans, 248 amino acids, expressed recombinantly in Escherichia coli
B2: in data set [1], the “Ratio: 3S,5S/3R,5S (%) - 3R,5S share” value turned out to be 98.6%, the “Ratio: 3S,5S/3R,5S (%) - 3S,5S share” value amounted to 1.4% and the “Conversion (%)” value is listed as greater than 84%. Also, the enzyme activity in data set [2] stood at 71 U/g.
